Data as given in patent publication US20220064329A1 (Novo Nordisk, published 2022).

Molecular target: T1, murine FVII(a) (mouse, UniProt P70375 42-446)
T1 sequence (looked up): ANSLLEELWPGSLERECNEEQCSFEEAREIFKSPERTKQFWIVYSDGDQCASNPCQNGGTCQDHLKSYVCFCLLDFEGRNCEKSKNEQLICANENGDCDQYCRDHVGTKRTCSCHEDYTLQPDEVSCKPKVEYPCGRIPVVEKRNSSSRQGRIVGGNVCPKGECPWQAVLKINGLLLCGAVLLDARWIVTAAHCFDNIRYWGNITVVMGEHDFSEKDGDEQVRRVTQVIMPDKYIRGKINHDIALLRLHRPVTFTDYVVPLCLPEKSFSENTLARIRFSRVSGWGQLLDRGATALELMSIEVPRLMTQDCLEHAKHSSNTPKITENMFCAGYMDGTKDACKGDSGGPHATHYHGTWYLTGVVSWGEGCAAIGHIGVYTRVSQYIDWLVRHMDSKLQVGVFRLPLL
Test: not told; stated as the reason for co-administering human FVII(a) in the mouse model

binding result: no binding
B1: biAb0001 (bispecific antibody, human IgG4 S228P, kappa)
heavy 1: QVQLQESGPGLVKPSQTLSLTCTVSGYSISSDSAWSWIRQPPGKGLEWIGYIQYSGSTNYNPSLKSRVTISRDTSKNQFSLKLSSVTAADTAVYYCARSVNYYGNSFAVGYWGQGTLVTVSSASTKGPSVFPLAPCSRSTSESTAALGCLVKDYFPEPVTVSWNSGALTSGVHTFPAVLQSSGLYSLSSVVTVPSSSLGTKTYTCNVDHKPSNTKVDKRVESKYGPPCPPCPAPEFLGGPSVFLFPPKPKDTLMISRTPEVTCVVVDVSQEDPEVQFNWYVDGVEVHNAKTKPREEQFNSTYRVVSVLTVLHQDWLNGKEYKCKVSNKGLPSSIEKTISKAKGQPREPQVYTLPPSQEEMTKNQVSLTCLVKGFYPSDIAVEWESNGQPENNYKTTPPVLDSDGSFLLYSKLTVDKSRWQEGNVFSCSVMHEALHNHYTQKSLSLSLGK
light 1: EIVLTQSPATLSLSPGERATLSCRASQGISDYLHWYQQKPGEAPRLLIKYTSQPATGIPARFSGSGSGTDFTLTISSLEPEDFAVYYCQNGHSFPLTFGQGTKLEIKRTVAAPSVFIFPPSDEQLKSGTASVVCLLNNFYPREAKVQWKVDNALQSGNSQESVTEQDSKDSTYSLSSTLTLSKADYEKHKVYACEVTHQGLSSPVTKSFNRGEC
heavy 2: not shown
light 2: DIVMTQTPLSSPVTLGQPASISCRSSQSLVHRQGNTYFHWLQQRPGQPPRLLIYKVSNRFSGVPDRFSGSGAGTDFTLKISRVEAEDVGVYYCSQSTHVPYTFGQGTKLEIKRTVAAPSVFIFPPSDEQLKSGTASVVCLLNNFYPREAKVQWKVDNALQSGNSQESVTEQDSKDSTYSLSSTLTLSKADYEKHKVYACEVTHQGLSSPVTKSFNRGEC
notes: also called anti-FVII(a)/anti-TLT-1 bispecific antibody; mAb0865 x mAb1076
